From patent US20130230453A1, “DIAGNOSIS AND TREATMENT OF BRAIN TUMORS” (Welcome Receptor Antibodies Pty Ltd, priority 2010, published 2013)
“Also recorded” adds a separate entry of the source. Blank lines part the entries; values can stand above or below the substance they belong to. No end group written: not given here.

Columns and labels:
CTR [1] = molecular target: T1, CTR (Homo sapiens, UniProt P30988); test: Inhibition of phosphorylation of ERK1/2 in GBM cell line A172; assay type: cell-based; conditions: 10^−6M sCT (8-32)
T1 construct: cMyc; expressed in transfected cells
T1 sequence (P30988 25-474): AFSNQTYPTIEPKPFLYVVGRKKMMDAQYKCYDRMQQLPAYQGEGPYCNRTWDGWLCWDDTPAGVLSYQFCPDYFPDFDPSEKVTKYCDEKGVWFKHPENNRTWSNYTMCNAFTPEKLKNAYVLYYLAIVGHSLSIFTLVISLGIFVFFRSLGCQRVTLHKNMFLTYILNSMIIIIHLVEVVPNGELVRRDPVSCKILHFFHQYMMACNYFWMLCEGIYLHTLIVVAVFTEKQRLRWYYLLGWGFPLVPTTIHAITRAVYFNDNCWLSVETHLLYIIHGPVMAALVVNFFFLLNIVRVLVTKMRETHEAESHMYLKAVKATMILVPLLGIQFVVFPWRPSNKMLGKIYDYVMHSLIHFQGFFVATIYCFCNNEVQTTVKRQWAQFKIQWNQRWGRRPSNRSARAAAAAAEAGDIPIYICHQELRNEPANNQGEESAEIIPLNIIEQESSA
Excerpt: FIG. 6. […] (C) is an immunoblot of a crude membrane preparation from the cell line A172 and probed with the anti-CTR antibody MCA2191.
(§1) The glioblastoma cell line A172 was maintained in DMEM/10% FBS.
FIG. 6 illustrates the concentration response curves and immunoblot for the GBM cell line A172.

CTR [2] = molecular target: T1, CTR; test: Stimulation of cAMP production (adenylyl cyclase activity) in GBM cell line A172; assay type: cell-based; conditions: 10^−6M sCT (8-32)
Excerpt: FIG. 6. […]. (C) is an immunoblot of a crude membrane preparation from the cell line A172 and probed with the anti-CTR antibody MCA2191.
as §1
FIG. 6 illustrates the concentration response curves and immunoblot for the GBM cell line A172. […]. The stimulation was inhibited by the antagonist 10^−6M sCT (8-32). In immunoblots (C) of whole cell lysates of A172 probed with the anti-CTR antibody MCA2191, there is a minor band that runs with a mobility of ˜70 kD and a major band at 52 kD.

[3] = molecular target: human calcitonin receptor, endogenous (GBM tissue, A172 glioblastoma cell line) (human) (UniProt P30988); test: cell-based or functional assay; conditions: scale: log EC50
breast cancer xenograft = conditions: mouse xenograft models of breast cancer; administration of calcitonin; cited from earlier work
T47D = conditions: cancer cell lines such as T47D; cited from earlier work

effect on the hCT inhibition of ERK1/2 phosphorylation (CTR [1]): inhibited; also recorded: antagonised
effect on the hCT stimulation of adenylyl cyclase activity (CTR [2]): inhibited
Substance: sCT (8-32): antagonist (also called inverse agonist) of CTR (VLGKLSQELHKLQTYPRTNTGSGTP)

log EC50, inhibition of phosphorylation of ERK1/2 in the GBM cell line A172 [3]: -10.5
log EC50, stimulation of adenylyl cyclase activity (cAMP production) in the GBM cell line A172 [3]: -9.9
Substance: human CT (from UniProt P01258 85-116) (ligand)

Substance: calcitonin (CGNLSTCMLGTYTQDFNKFHTFPQTAIGVGAP; ends and bridges not checked; cysteine pairing not given here; UniProt P01258 85-116, looked up) [calcitonin (CT), calcitonin receptor agonist]
tumor volume (breast cancer xenograft): significantly reduced
cell proliferation (T47D): inhibits cell proliferation
